Assay results: patent publication US12280121B2, “Immunoconjugates and methods” (Immunome, Inc., priority 2021, dated 2025)
Read-outs that look alike come from different tables or passages of the source.

Test system: Jeko-1
Assay: CTG assay of ROR-1 ADCs and toxins, JeKo-1
Type: cell-based
Description: FIG. 33 illustrates a CTG assay wherein ROR+ (JeKo-1) cells were incubated with the ADCs generated as described in FIG. 32 in serial three-fold dilutions and cell viability was assessed after 72 hours.
The CTG assay is a method of determining the number of viable cells in culture based on quantitation of the ATP present, an indicator of metabolically active cells. The cell assay requires the addition of a single reagent, Cell Titer Glo, in which cells are lysed and generation of a luminescent signal is produced. The luminescent signal is proportional to the amount of ATP present. The amount of ATP is directly proportional to the number of cells present in culture. For our assay, cells were ensured to be in log-phase for either Jeko-1 or MDA-MB-468. Cells were transferred to 96 wells and treated with compounds in three-fold serial dilution starting from 1 μM to 0.0000508 μM (10 points dilution), for 72 h. Cell viability was analyzed with CellTiter-Glo® Luminescent Cell Viability Assay (Promega) following manufactures' instruction. Percentage of viable cells in each compound concentration was determined by normalizing with the luminescence of vehicle control and plotted into percentage of viability versus dose response curve by nonlinear fit in GraphPad Prism software.
Novel ROR-1 antibody-drug conjugates (ADCs) were evaluated by CTG Assay in a similar manner as was described in Example 24 for screening of payloads. […] Briefly ROR+(JeKo-1/MDA-MB-468) or ROR− (Ramos) cells were transferred to 96 wells and treated with the ADCs in three-fold serial dilution starting from […] (10 points dilution), for 72 h. Cell viability was analyzed with CellTiter-Glo® Luminescent Cell Viability Assay (Promega) following the manufactures' instructions (FIG. 33). The percentage of viable cells at each ADC concentration was determined by normalizing with the luminescence of vehicle control and plotted into percentage of viability versus dose response curve by nonlinear fit in GraphPad Prism software.

B1: VLS-101 (conjugate, chains of the INN, looked up)
VH: QVQLQESGPGLVKPSQTLSLTCTVSGYAFTAYNIHWVRQAPGQGLEWMGSFDPYDGGSSYNQKFKDRLTISKDTSKNQVVLTMTNMDPVDTATYYCARGWYYFDYWGHGTLVTVSS
VL: DIVMTQTPLSLPVTPGEPASISCRASKSISKYLAWYQQKPGQAPRLLIYSGSTLQSGIPPRFSGSGYGTDFTLTINNIESEDAAYYFCQQHDESPYTFGEGTKVEIK
modifications: vedotin (MMAE) payload
IC50 (Jeko-1, average of run 1 and run 2, read-out: Avg. IC50): 0.0601 µM | IC50 (Jeko-1 P3, run 1, 72 h, read-out: Jeko-1 P3 (RUN1) IC50): 0.0634 µM | IC50 (Jeko-1 P4, run 2, 72 h, read-out: Jeko-1 P4 (RUN2) IC50): 0.0568 µM
